Assay results: publication doi:10.1101/2024.07.19.604271
Where two headings read alike, the source gives them in different places.

How the values were obtained:
[1] = target: stabilized microtubules polymerized from pig brain tubulin (GMPCPP-stabilized or Taxotere-stabilized) (pig); test: TIRF microscopy of fluorescent kinesin on surface-attached microtubules
[2] = target: stabilized microtubules polymerized from pig brain tubulin (GMPCPP-stabilized or Taxotere-stabilized) (pig); test: as above; remark: listed apart in the source
[3] = target: full-length Kip2-Δ70 (S. cerevisiae) (UniProt P28743); test: TIRF microscopy, tubulin transport assay

| fold lower affinity than bKip2-WT [1] [fold] | fold lower affinity than bKip2-WT [2] [fold] | Substance | fold reduction of tubulin transport events against wild type Kip2 [3] [fold] |
| --- | --- | --- | --- |
| 3.5 | 2.8 | bKip2-P1 (motor domain P1 mutant, K294R K296R) (from UniProt P28743 1-560) (domain or fragment) | – |
| 1.3 | – | bKip2-Δ70 (from UniProt P28743 71-560) (domain or fragment) | – |
| – | – | free tubulin dimers, ATTO-488-labelled, from pig brain (complex) | 3 to 8 |
